Experimental findings from the DeepSol protein solubility set are described below.

This series is described as follows: soluble on expression in E. coli; label from the status in PepcDB or PDB records.
As for “MLEFDTTQDQLANIKVIGVGGGGNNAVNRMIEHGVQGVDFIAVNTDAQALNLSKAETKMQIGGKLTRGLGAGANPEVGKKAAEESKEQIQEALRGADMVFVTAGMGGGTGTGAAPVVAQVAKELGALTVGVVTRPFTFEGRKRATQAASGIAAFKENVDTLIVIPNDRLLEIVDKNTPMLEAFREADNVLRQGVQGISDLIATPGLINLDFADVKTIMSNRGSALMGIGSGNGENRAAEAAKKAISSPLLETSIDGAQGVIMNITGGANLSLYEVQEAADIVASASDPEVNMIFGSVINEGLKDDIVVTVIATGFDDSIATQPPKPIIRPNVNHTQQQQQPVAQPPKQREVKREMKREEPVVHERHSDSDSDDIDIPAFLRNRRRR”, the “soluble on expression in E. coli” value is “not soluble”.

On to “MLEIDNQTPLESDFLLLEKIANVLAPTQIIELVLVSDETIREINKDLRGCDYATDVLSFPLEAIPHTPLGSVVINAPLAQTNALKLGHSLENEIALLFIHGVLHLLGYDHEKDKGEQRQKESELIKAFNLPLSLIERTQDLEHHHHHH”, for which the “soluble on expression in E. coli” value is listed as “not soluble”.

For “MLEIKRYKNRVASRKCRAKFKQLLQHYREVAAAKSSENDRLRLLLKQMCPSLDVDSIIPRTPD”, the “soluble on expression in E. coli” value is reported as “soluble”.

Consider “MLEKTLLKIALDLSLSLPKKAHYQRLMLAVNEVMPCDAVALLVLQDDYLVPVAVDGLSPEVLGMRFSPEEHPRLKAILSSRKPIRFDADSSYPDPYDGLLSIDPKRVLDVHDCMGCCLYVEENLVGVLTLDALQVGAFSNVDDITVATLAALAAATIRNANCIAVLEKRNEKALCLTNELVKDAHKAKGDD”, for which the “soluble on expression in E. coli” value is recorded as “not soluble”.

Turning to “MLERIKSGVIGLDEILGGGFIKNTVNAVVGGMGCGKTIFCMNYLLEGLENGEKCMYASPDLDVDEFLRLAESMHWDFSKYIDNGQLNIMTVVAEDAASFIKMAFEYDRVAVDALSPLVIDVEAGSRKEIGWLLKNLKSKGTALITVEEPLRQNADLLLLLADSVISLRYTGYGGPFSRTLRVLKHRMSWHGDGVYPFYIIEGAGIVIDEKRGEGFELEEEMNLPERAKEKIAEMCKKGTLTLEDISKIKRRIP”, the “soluble on expression in E. coli” value is on record as “not soluble”.

“MLETYDWNNKLTYLKNTRDLYYNDDYVSFLVNTVWKITKPVHIVDYGCGYGYLGLVLMPLLPEGSKYTGIDSGETLLAEARELFRLLPYDSEFLEGDATEIELNDKYDIAICHAFLLHMTTPETMLQKMIHSVKKGGKIICFEPHWISNMASYLLDGEKQSEFIQLGVLQKLFESDTQRNGKDGNIGMKIPIYLSELGVKNIECRVSDKVNFLDSNMHHNDKNDLYQSLKEEGIAGDPGDKQQFVERLIARGLTYDNALAQYEAELRFFKALHLHSSLVYAPNMKITFGEIECMAGDPLEHHHHHH”: the “soluble on expression in E. coli” value was “soluble”.

For the sequence “MLFDHLRDEVMRLDAGITQEVLKLYIAFKAETNFVDVVPQKSRLRLSLNMQFHELVDPKGIAKDVTNVGRWGNGDVEIGFSDLAQLPYIMGLIRQAFEKQMESALV”, the “soluble on expression in E. coli” value is on record as “not soluble”.

Turning to “MLFTVTAPKEVYTVDVGSSVSLECDFDRRECTELEGIRASLQKVENDTSLQSERATLLEEQLPLGKALFHIPSVQVRDSGQYRCLVICGAAWDYKYLTVKVKASYMRIDTRILEVPGTGEVQLTCQARGYPLAEVSWQNVSVPANTSHIRTPEGLYQVTSVLRLKPQPSRNFSCMFWNAHMKELTSAIIDPLSRMEPKVPRT”, the “soluble on expression in E. coli” value is “soluble”.

For the sequence “MLHAKIETLGVDPQNGSVVVLLRTENDKLLPIVIGPLEAHHIVVALQGEKPPRPLTPDLLLSVMEMLQAKLKRVEIVDLRDGTFYARLILEHRGIELEVDARPSDAMALALRAGAPILVAEEVVEKAGVEEANIRPHGAAEA”, the “soluble on expression in E. coli” value is on record as “soluble”.

Turning to “MLHCLDEFGNLKLKAIIDWQGVSTLPPGLDLSRLLMGCLSAHERRERGLEMLKLYHETFNQVLGKELFSFQELQDSYNLYYPMMAMALLPLVSSLAENSQVSEVEKAQIRFKTETKLVAMMEDLIEVHEYNLKHFPEILKG”, the “soluble on expression in E. coli” value is recorded as “not soluble”.

For the sequence “MLIAFEGIDGSGKTTQAKKLYEYLKQKGYFVSLYREPGGTKVGEVLREILLTEELDERTELLLFEASRSKLIEEKIIPDLKRDKVVILDRFVLSTIAYQGYGKGLDVEFIKNLNEFATRGVKPDITLLLDIPVDIALRRLKEKNRFENKEFLEKVRKGFLELAKEEENVVVIDASGEEEEVFKEILRALSGVLRV”, the “soluble on expression in E. coli” value is “soluble”.

For the sequence “MLIFGVIMVTIIVLFHPILTNQRDTIVTSTFKEIASDACYYINLGVKVEDYEHEPLNNLVGNVKCNFLGISVDSTTGEIRVTLKFEVNGNAQDFASGIIEYIKRRITEIRGFTITDKGEIFYRDSKITIEILTLEHHHHHH”, the “soluble on expression in E. coli” value is “not soluble”.

In the case of “MLIKLTGGTVYDPANGIDGQVRNLFIRDGRIVHSLNGATPDQEYDLRGKVVMAGAIDMHTHIGGGKVTIARNLLPEDHRADPEPRRGLMRAGCGHAAPSTLTTGYRYAEMGYTAGFEPAVLPINARQAHMEMADVPLLDVGGYVMLGSDDFFLRLLSAGSDQKLINDYVAWTIRSAKAIGIKVVNPGGISAFKFNQRMLDLDEKHVYYGVTPRQILKSLARAVHELGVPHPLHVHGCNLGVPGNVETTLNTISGIEGLPMHLTHIQFHSYGVEGDRKFSSGAARIAEAINANKNITIDVGQILFGQTVTASGDSMRQHANAGHAHPDKWVCMDIECDAGCGVVPFKYRDKNFVNALQWCIGLETFLLIDDPWRVFLTTDHPNGAPFTTYPHLIRLLMDKSFRNDMLATINPEAAALSTLGSIDREYSLYEIAIMTRAGAARLLGLTDRGHLGAGAAADITVYTDQADKEKMFTRPDYVFKDGELVVRNGEVVKVVWGNLHTVQPEFDNGIEARLRDYFDRYHTMKLDNFVINDWEIEGDGRSKILVHPCHQGTRSLEHHHHHH”, the “soluble on expression in E. coli” value is “not soluble”.

For “MLIKRLAFAIMTLVIMTSAGCGFKLQRSYQIPEQLNQLSLSSSDEYSELTRLVRERLRLNNVKIVDAANDVPVLRLITDSLERSTLSLYPTGNVAEYELIYFVEFAVALPGKEAQPFKIEIRRDYLDDPRTALAKSREMELLVKEMRIQAADRILQSMASTEVNLEHHHHHH”, the “soluble on expression in E. coli” value is “soluble”.

On to “MLIVGINGSPKKEGNTKYLINTVLEEAKSQGVETMVLEVGELLNSVKNPFCVVCSNPCSSICYKGTKLEEAYEILKKADAIVMGSPVYFGSVSAQLKAFFDKTRKLRSEKALYNKFACGVTVGGARFGGQETTMKALHDIMLVHGMTIVGDGYVGDDCGHHGVCAQQPADKDEFAIKRAKILGRRLVDVCKKAGALEHHHHHH”, for which the “soluble on expression in E. coli” value is given as “soluble”.

In the case of “MLIVLPPSETKAVGGKNPAIDFDSLHFPTLNPIRKEIAHDLARLDISQAQEILKLSQKLLPEAQRNIELFQSPTMPAVLRYTGVLYDALDATSLPSSTWEHLAIGSALFGVVMANDNIPHYRLSGTTKLPCADASVPTLKRRWGNAISTALSDTNEVILDLRSGTYQQLGKVKHAITVRVESEDSDGKRSVISHFNKHYKGQLARALLLHDVTPDPDHAIEDLIGMTQECGFAVEHSKPHELTVVITQ”, the “soluble on expression in E. coli” value was “not soluble”.

On to “MLKKIERAQQLLKKEAAVFRCPTCHEPMHLEGVGLICQQRHQFDLSKKGTLYFLNHGVQTEYNKKMFTSRGKMIQSGMYAPVLNKIMHYLPQNKTVVDVGCGEGSFLAELSQAGLSGLKIGFDLSKEGIYLASNQPIDAFWCVADLTNLPFANEGLDTILNIFSPSHYQEFRRVLKADGTVIKIIPEENYLKELRAAFYPNDEKKQSYSNQKVVQRFAEELAVEVDERITYCFDIPEERRLDLLEMSPLEWQVSQEVKAELQQRPLEKITIDVRLLVGRKR”, for which the “soluble on expression in E. coli” value was “not soluble”.

Turning to “MLKREMNIADYDAELWQAMEQEKVRQEEHIELIASENYTSPRVMQAQGSQLTNKYAEGYPGKRYYGGCEYVDVVEQLAIDRAKELFGADYANVQPHSGSQANFAVYTALLQPGDTVLGMNLAQGGHLTHGSPVNFSGKLYNIVPYGIDESGKIDYDEMAKLAKEHKPKMIIGGFSAYSGVVDWAKMREIADSIGAYLFVDMAHVAGLIAAGVYPNPVPHAHVVTTTTHKTLAGPRGGLILAKGGDEELYKKLNSAVFPSAQGGPLMHVIAGKAVALKEAMEPEFKVYQQQVAKNAKAMVEVFLNRGYKVVSGGTENHLFLLDLVDKNLTGKEADAALGRANITVNKNSVPNDPKSPFVTSGIRIGSPAVTRRGFKEAEVKELAGWMCDVLDNINDEATIERVKAKVLDICARFPVYA”, the “soluble on expression in E. coli” value is listed as “not soluble”.
